This data set is described as follows: protein stability index of a GFP-peptide fusion (GPS, HEK-293T) (PSI 1-6); higher = more stable. The note with it: c terminus: a fixed tail appended.

± gives the standard deviation.
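Further: 24-mer peptide tiles fused after GFP, lentivirally expressed, FACS-sorted into six equal bins by GFP/DsRed ratio, decoded by Illumina sequencing, PSI is the read-weighted mean bin number.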

On to RNVRFSDEGGFTCFFRDHSYQEEA [MOG], for which the protein stability index was 3.54 ± 0.35 (treatment: DMSO) and 3.75 ± 0.59 (treatment: MLN4924 1 uM, 8 h).

With AAWLTLWVFGTSFLPFLLCAVLLS [FADS1], the protein stability index is, setting by setting: (treatment: DMSO) 2.97 ± 0.53; (treatment: MLN4924 1 uM, 8 h) 3.15 ± 0.69.

Consider DKKTCTKIDYCASSNHGCQHECVN [MATN2], for which the protein stability index is, setting by setting: (treatment: DMSO) 4.11 ± 0.22; (treatment: MLN4924 1 uM, 8 h) 4.23 ± 0.13.

In turn, PLPVSADDTPEVLNRALSNLSSRW [CDS2] registered a protein stability index (treatment: DMSO) of 3.82 ± 0.17 and a protein stability index (treatment: MLN4924 1 uM, 8 h) of 3.83 ± 0.19.

For LGAQTQFDVKNDRYIVNGSHEANK [EIF5], the protein stability index was 4.8 ± 0.3 (treatment: DMSO) and 4.77 ± 0.2 (treatment: MLN4924 1 uM, 8 h).

Turning to NRGINITIYGKTFRVVDCDQFTQV [EFHC1], the protein stability index by setting is: (treatment: DMSO) 2.24 ± 0.53; (treatment: MLN4924 1 uM, 8 h) 2.72 ± 0.51.

Consider RRPEDQELESLSAIEAELEKVAHQ [CHGA], for which the protein stability index is, setting by setting: (treatment: DMSO) 5.15 ± 0.09; (treatment: MLN4924 1 uM, 8 h) 5.3 ± 0.24.

In the case of NFLACLASFCVETNNGAGFGLSIL [SCAMP3], the protein stability index reads like this: (treatment: DMSO) 3.02 ± 0.55; (treatment: MLN4924 1 uM, 8 h) 2.99 ± 0.41.

For TFFEVSPLCNFNIIESFTELARIV [RAB40A], the protein stability index is 2.53 ± 0.42 (treatment: DMSO) and 2.43 ± 0.28 (treatment: MLN4924 1 uM, 8 h).

Turning to SETDFETEPETAPTTEPETEPEDD [GNAS], the protein stability index is, setting by setting: (treatment: DMSO) 5.69 ± 0.19; (treatment: MLN4924 1 uM, 8 h) 5.581 ± 0.055.

For PPVPCVPSVPCTPAPQVGTQIRTI [KRT36], the protein stability index is, setting by setting: (treatment: DMSO) 4.46 ± 0.22; (treatment: MLN4924 1 uM, 8 h) 4.31 ± 0.2.

VVHRSDEQQHYFNTPFQLSIAPPE [PPTC7]: the protein stability index reads like this: (treatment: DMSO) 3.96 ± 0.28; (treatment: MLN4924 1 uM, 8 h) 4 ± 0.24.

Take ILTSQPGKEVVKQLEEGLKDTDLA [M1AP]: the protein stability index reads like this: (treatment: DMSO) 5.05 ± 0.28; (treatment: MLN4924 1 uM, 8 h) 5.17 ± 0.17.

With EDLQSIIYKLEEHEEFFPAFQAFT [CEP70], the protein stability index was determined as 2.38 ± 0.18 (treatment: DMSO) and 2.17 ± 0.31 (treatment: MLN4924 1 uM, 8 h).

On to FQKSHNSLQRWEHLKKVASRYQNN [PRIM1], for which the protein stability index reads like this: (treatment: DMSO) 2.46 ± 0.42; (treatment: MLN4924 1 uM, 8 h) 2.9 ± 0.13.

In turn, QPCNPPAPAGDKGFQPPSPSLRPR [DMRTC1] showed a protein stability index (treatment: DMSO) of 5.27 ± 0.14 and a protein stability index (treatment: MLN4924 1 uM, 8 h) of 5.15 ± 0.19.

For the sequence LQMEFKAVQQVQRLPFLSSSNLSL [POMP], the protein stability index (treatment: DMSO) stood at 2.15 ± 0.22 and the protein stability index (treatment: MLN4924 1 uM, 8 h) came out at 2.16 ± 0.17.

GSPGMIYSTRYGSPKRQLQFYRNL [KCNAB2]: the protein stability index was determined as 2.44 ± 0.55 (treatment: DMSO) and 3.1 ± 0.38 (treatment: MLN4924 1 uM, 8 h).

The sequence LTHLSLSRRASESSLSSESSESSD [CDC25B] returned a protein stability index (treatment: DMSO) of 5.38 ± 0.24 and a protein stability index (treatment: MLN4924 1 uM, 8 h) of 5.4 ± 0.12.

LLDNPLCADVLFILQDQEHIFAHR [RHOBTB1] displayed a protein stability index (treatment: DMSO) of 2.36 ± 0.35 and a protein stability index (treatment: MLN4924 1 uM, 8 h) of 2.17 ± 0.11.

As for FKPKNEEPYGHLNPKWTKWLQKLC [PI4K2A], the protein stability index reads like this: (treatment: DMSO) 2.88 ± 0.58; (treatment: MLN4924 1 uM, 8 h) 2.79 ± 0.54.

NRASLYSFPEPEAAQPMTKKRKVD [PRAME] showed a protein stability index (treatment: DMSO) of 4.54 ± 0.27 and a protein stability index (treatment: MLN4924 1 uM, 8 h) of 4.74 ± 0.14.

For the sequence MLLELTRRGQEPLSALLQFGVTYL [BCL2L13], the protein stability index was found to be 2.63 ± 0.59 (treatment: DMSO) and 2.4 ± 0.41 (treatment: MLN4924 1 uM, 8 h).

Turning to WFLNALHSALGGTKKKKKTIVTDV [USP39], the protein stability index was determined as 2.6 ± 0.61 (treatment: DMSO) and 2.19 ± 0.47 (treatment: MLN4924 1 uM, 8 h).

ESGVDVNSQNEVNGWTCLHWACKR [ANKRD40] showed a protein stability index (treatment: DMSO) of 3.06 ± 0.22 and a protein stability index (treatment: MLN4924 1 uM, 8 h) of 3.31 ± 0.46.

Take QLQHEKAELEQHLEQEQEFQVNKL [CCDC6]: the protein stability index by setting is: (treatment: DMSO) 5.35 ± 0.19; (treatment: MLN4924 1 uM, 8 h) 5.41 ± 0.24.

As for GVVVEDGVCIRRCTVLRDARIRSH [GMPPB], the protein stability index amounted to 2.83 ± 0.19 (treatment: DMSO) and 2.75 ± 0.33 (treatment: MLN4924 1 uM, 8 h).

Take IAMAVYTYLRLIVDHHGTAQLQAL [INTS3]: the protein stability index was 3.35 ± 0.51 (treatment: DMSO) and 3.17 ± 0.14 (treatment: MLN4924 1 uM, 8 h).

DSFVVQYEDTNGQPQALLVDGDQS [TNXB] registered a protein stability index (treatment: DMSO) of 5 ± 0.27 and a protein stability index (treatment: MLN4924 1 uM, 8 h) of 4.83 ± 0.39.

These data come from the supplement of paper PMC10567573.
